Consider 7 substances from US10981967B2, “Long-acting conjugate of triple glucagon/GLP-1/GIP receptor agonist” (HANMI PHARM. CO., LTD., priority 2015, dated 2021).

Positions of bridges follow the written chain, without caps; N, C: chain ends. Non-standard residues stand in square brackets, D forms with d. No end group written: not given here. Aib = CC(C)(N)C(=O)O

Type in all cases: cell-based
One test addresses T1, human GLP-1 receptor (Homo sapiens, UniProt P43220).
T1 construct: expressed in transfected cells; host or cells: Chinese hamster ovary (CHO)
Nature of the test: In vitro cAMP activity (LANCE cAMP kit) in CHO cells expressing human GLP-1 receptor, relative to human GLP-1. The note with it: long-acting conjugates; relative potency from cAMP EC50 compared to human GLP-1, CHO cells. How it is done:
(§1) The activities of the triple agonists and long-acting conjugates thereof prepared in Examples 1 and 2 were measured by a method of measuring in vitro cellular activities using cell lines, where a GLP-1 receptor, a glucagon (GCG) receptor, and a GIP receptor are transformed, respectively.
(§2) Each of the cell lines above is one in which the genes for human GLP-1 receptor, human GCG receptor, and human GIP receptor were transformed in Chinese hamster ovary (CHO), respectively, and can be expressed therein, and is thus suitable for the measurement of the activities of GLP-1, GCG, and GIP. Accordingly, the activity for each part was measured using the respective transformed cell line.
(§3) For the measurement of the GLP-1 activities of the triple agonists and long-acting conjugates prepared in Examples 1 and 2, human GLP-1 was subjected to a 4-fold serial dilution from 50 nM to 0.000048 nM, and the triple agonists and long-acting conjugates thereof prepared in Examples 1 and 2 were subjected to a 4-fold serial dilution from 400 nM to 0.00038 nM. The culture solution was removed from the cultured CHO cells, in which the human GLP-1 receptor was expressed, and each of the serially-diluted materials was added to the CHO cells in an amount of 5 μL, respectively. Then, a buffer solution containing cAMP antibody was added thereto in an amount of 5 μL and cultured at room temperature for 15 minutes. Then, a detection mix containing a cell lysis buffer was added thereto in an amount of 10 μL for the lysis of the cells and reacted at room temperature for 90 minutes. The cell lysates, upon completion of the reaction, were applied to LANCE cAMP kit (PerkinElmer, USA) to calculate the EC50 value via accumulated cAMP, and the values were compared with each other.
(In TR-FRET formats the signal depends on donor and acceptor labels being close together.)

For the next test, the target named is T2, human GCG receptor (Homo sapiens, UniProt P47871).
T2 construct: expressed in transfected cells; host or cells: Chinese hamster ovary (CHO)
Put plainly: In vitro cAMP activity (LANCE cAMP kit) in CHO cells expressing human GCG receptor, relative to human GCG. As to conditions: long-acting conjugates, relative potency from cAMP EC50 compared to human GCG. How it is done:
as §1, §2
as §3, with “GCG” for “GLP-1”

Another test concerns the target T3, human GIP receptor (Homo sapiens, UniProt P48546).
T3 construct: expressed in transfected cells; host or cells: Chinese hamster ovary (CHO)
T3 sequence (P48546 22-466): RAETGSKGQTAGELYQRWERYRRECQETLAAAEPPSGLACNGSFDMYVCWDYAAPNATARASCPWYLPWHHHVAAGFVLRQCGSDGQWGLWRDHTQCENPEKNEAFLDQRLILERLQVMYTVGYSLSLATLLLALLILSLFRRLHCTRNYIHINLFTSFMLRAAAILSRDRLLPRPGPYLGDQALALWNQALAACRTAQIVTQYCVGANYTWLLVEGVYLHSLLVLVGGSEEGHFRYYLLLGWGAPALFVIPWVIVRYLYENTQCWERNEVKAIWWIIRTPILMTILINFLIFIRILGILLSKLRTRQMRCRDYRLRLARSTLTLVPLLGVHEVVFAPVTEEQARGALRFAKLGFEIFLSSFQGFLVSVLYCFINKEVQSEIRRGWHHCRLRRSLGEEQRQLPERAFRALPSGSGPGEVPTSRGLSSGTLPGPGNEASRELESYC
Nature of the test: In vitro cAMP activity (LANCE cAMP kit) in CHO cells expressing human GIP receptor, relative to human GIP. The note with it: long-acting conjugates, relative potency from cAMP EC50 compared to human GIP. How it is done:
as §1, §2
as §3, with “GIP” for “GLP-1”

T1 sequence (P43220 24-463): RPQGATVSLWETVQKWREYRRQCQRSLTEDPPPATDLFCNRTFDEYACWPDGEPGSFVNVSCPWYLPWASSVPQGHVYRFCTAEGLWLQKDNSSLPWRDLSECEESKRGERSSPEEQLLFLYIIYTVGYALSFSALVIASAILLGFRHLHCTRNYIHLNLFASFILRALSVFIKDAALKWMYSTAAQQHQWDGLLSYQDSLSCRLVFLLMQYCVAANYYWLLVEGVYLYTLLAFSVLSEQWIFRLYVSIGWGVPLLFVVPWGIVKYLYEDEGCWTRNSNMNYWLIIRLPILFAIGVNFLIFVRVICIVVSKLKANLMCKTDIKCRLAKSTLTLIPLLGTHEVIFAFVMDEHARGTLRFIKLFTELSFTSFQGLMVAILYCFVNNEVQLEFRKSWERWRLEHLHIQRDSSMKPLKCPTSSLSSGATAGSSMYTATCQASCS
T2 sequence (P47871 26-477): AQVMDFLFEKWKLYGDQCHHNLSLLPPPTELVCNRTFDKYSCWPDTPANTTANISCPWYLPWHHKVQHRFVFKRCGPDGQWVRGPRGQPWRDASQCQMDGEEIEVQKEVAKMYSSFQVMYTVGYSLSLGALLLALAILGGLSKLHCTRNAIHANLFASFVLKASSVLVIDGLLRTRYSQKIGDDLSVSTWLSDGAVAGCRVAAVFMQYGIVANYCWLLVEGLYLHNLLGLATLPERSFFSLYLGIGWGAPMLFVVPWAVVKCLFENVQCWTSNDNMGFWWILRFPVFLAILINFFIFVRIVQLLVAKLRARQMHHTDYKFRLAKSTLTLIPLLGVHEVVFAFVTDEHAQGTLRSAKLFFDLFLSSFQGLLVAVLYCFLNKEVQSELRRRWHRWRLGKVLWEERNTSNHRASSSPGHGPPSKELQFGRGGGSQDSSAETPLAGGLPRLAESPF

Take “77 (Y[Aib]QGTFTSDYSKYLDEKAAKDFVQWLLDHHPSSGQPPPSC; bridge 16-20) [compound 77]”: the “In vitro activity compared to native peptide (%) vs. GLP-1” value (from here on “In vitro activity … (%) vs. GLP-1”) in the test with human GLP-1 receptor stood at 6.7%. Besides, the “In vitro activity compared to native peptide (%) vs. Glucagon” value (“In vitro activity … (%) vs. Glucagon” below) in the test with human GCG receptor is 1.7%. The “In vitro activity compared to native peptide (%) vs. GIP” value (from here on “In vitro activity … (%) vs. GIP”) in the test with human GIP receptor is listed as 6.6%.

With “42 (Y[Aib]QGTFTSDYSKYLDEKRAKEFVQWLLDHHPSSGQPPPSC; bridge 16-20) [compound 42]”, the “In vitro activity … (%) vs. GLP-1” value in the test with human GLP-1 receptor is recorded as 3.1%. In addition, the “In vitro activity … (%) vs. Glucagon” value in the test with human GCG receptor is on record as 23.1%. The “In vitro activity … (%) vs. GIP” value in the test with human GIP receptor is given as 1.2%.

Take “50 (H[Aib]QGTFTSDYSKYLDEKRAKEFVQWLLDHHPSSGQPPPSC; bridge 16-20) [compound 50]”: the “In vitro activity … (%) vs. GLP-1” value with human GLP-1 receptor is given as 15.4%. Also, the “In vitro activity … (%) vs. Glucagon” value with human GCG receptor turned out to be 6.9%. Also, the “In vitro activity … (%) vs. GIP” value in the test with human GIP receptor came out at 0.7%.

For the substance “43 (Y[Aib]QGTFTSDYSKYLDEKRAKEFVQWLLDHHCSSGQPPPS; bridge 16-20) [compound 43]”, the “In vitro activity … (%) vs. GLP-1” value with human GLP-1 receptor was 2.1%. In the test with human GCG receptor, the “In vitro activity … (%) vs. Glucagon” value is listed as 13.5%. For the same substance, the “In vitro activity … (%) vs. GIP” value with human GIP receptor is on record as 0.6%.

“96 (Y[Aib]QGTFTSDYSKYLDEKRAKEFVQWLLDHCPSSGQPPPS; bridge 16-20) [compound 96]”: in the test with human GLP-1 receptor, the “In vitro activity … (%) vs. GLP-1” value is reported as 0.3%. Further, in the test with human GCG receptor, the “In vitro activity … (%) vs. Glucagon” value stood at 4.0%. Further, in the test with human GIP receptor, the “In vitro activity … (%) vs. GIP” value was found to be 0.3%.

“22 (Y[Aib]QGTFTSDYSKCLDEKRAKEFVQWLLDHHPSSGQPPPS; bridge 16-20) [compound 22]”: the “In vitro activity … (%) vs. GLP-1” value with human GLP-1 receptor came out at 0.1%. Besides, the “In vitro activity … (%) vs. Glucagon” value with human GCG receptor is 0.9%. The “In vitro activity … (%) vs. GIP” value with human GIP receptor was found to be 0.5%.

As to “21 (Y[Aib]QGTFTSDYSKYLDECRAKEFVQWLLDHHPSSGQPPPS; bridge 16-20) [compound 21]”, the “In vitro activity … (%) vs. GLP-1” value with human GLP-1 receptor came out at 0.1%. Further, the “In vitro activity … (%) vs. Glucagon” value with human GCG receptor amounted to 1.6%. In addition, in the test with human GIP receptor, the “In vitro activity … (%) vs. GIP” value came out at 0.2%.
